Data: patent US20080193465A1 (US Dept. of Health and Human Services, published 2008)

How the values were obtained:
mature IGF-II = target: T1, mature IGF-II (human, UniProt P01344 25-91); test: ELISA, 50 ng mature IGF-II immobilized, OD405
T1 construct: also called mature form of IGF-II
Protocol: (§1) Binding of the antibodies was measured by ELISA with 50 ng of either mature or precursor IGF-II immobilized on plates.

[1] = target: T2, long IGF-II (IGF-II precursor) (human, UniProt P01344 25-180); test: Biacore SPR, Fab on long IGF-II
T2 construct: Expressed in E. coli as His-tagged long IGF-II; also called long His6-IGF-II; His-tagged long IGF-II; not shown: His6 tag from the E. coli expression vector (pRSET)

[2] = target: T2, long IGF-II (IGF-II precursor); test: ELISA, Fab on immobilized long IGF-II
[3] = target: T2, long IGF-II (IGF-II precursor); test: Biacore 1000 SPR, IGF-II immobilized on CM5 chip, Fab injected, 1:1 Langmuir fit, 25° C.
Protocol: The binding of the Fabs was measured by using ELISA and Biacore surface plasmon resonance technology. […] Interactions between various Fabs and IGF-II were analyzed by surface plasmon resonance technology using a BIACORE 1000 instrument (Biacore, Pharmacia, Piscataway, N.J.). IGF-II was covalently immobilized onto a sensor chip (CM5) using carbodiimide coupling chemistry. A control reference surface was prepared for nonspecific binding and refractive index changes. For analysis of the kinetics of interactions, varying concentrations of Fabs were injected at flow rate of 30 μl/min using running buffer containing 150 mM NaCl, 3 mM EDTA, and 0.005% P-20 (pH 7.4). The association and dissociation phase data were fitted simultaneously to a 1:1 Langumir global model by using the nonlinear data analysis program BIAevaluation 3.2. All the experiments were performed at 25° C.
Biacore analysis was used to examine their binding affinities in more detail.

BSA = target: T3, BSA (Bos taurus, UniProt P02769); test: ELISA, antigens immobilized on the plate, single Fab concentration not shown, OD405
T3 construct: also called bovine serum albumin
T3 sequence (P02769 25-607 limits assumed): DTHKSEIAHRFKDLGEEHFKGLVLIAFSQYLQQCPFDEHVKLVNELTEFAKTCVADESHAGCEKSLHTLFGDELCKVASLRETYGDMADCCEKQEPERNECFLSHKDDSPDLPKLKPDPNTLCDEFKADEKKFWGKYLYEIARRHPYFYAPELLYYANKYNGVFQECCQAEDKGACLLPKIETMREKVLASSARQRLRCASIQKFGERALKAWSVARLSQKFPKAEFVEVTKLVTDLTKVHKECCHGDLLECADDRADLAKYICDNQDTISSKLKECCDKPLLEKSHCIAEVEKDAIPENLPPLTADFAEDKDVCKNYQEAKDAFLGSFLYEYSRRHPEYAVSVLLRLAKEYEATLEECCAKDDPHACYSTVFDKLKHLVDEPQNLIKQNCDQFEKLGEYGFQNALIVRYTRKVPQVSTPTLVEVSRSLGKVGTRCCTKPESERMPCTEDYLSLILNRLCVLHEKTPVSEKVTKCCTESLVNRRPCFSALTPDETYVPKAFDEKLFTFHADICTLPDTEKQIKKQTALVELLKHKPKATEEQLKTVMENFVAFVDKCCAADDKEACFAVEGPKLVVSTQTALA

IGF-I = target: T4, IGF-I (UniProt P05019 49-118); test: as above
T4 construct: also called insulin-like growth factor I

[4] = target: T2, long IGF-II (IGF-II precursor); test: ELISA, long IGF-II immobilized at 50 ng/well, bound Fab detected with anti-FLAG-HRP, OD405
[5] = target: T2, long IGF-II (IGF-II precursor); test: ELISA, 50 ng long (precursor) IGF-II immobilized, OD405
Protocol: as §1

Row | Binder | EC50 (read off the curve) (mature IGF-II) | Ka [1] | Kd [1] | kon [1] | EC50 [2] | Kd [3] | koff [3] | kon [3] | binding result (BSA) | binding result (IGF-I) | EC50 (read off the curve) [4] | EC50 (read off the curve) [5] | koff [1]
1 | Fab m606 (Fab, V domains shown, also called clone M606) VH: QVQLVESGAEVKKPGASVKVSCKASGYTFTSYYMHWVRQAPGQGLEWMGIINPSGGSTSYAQKFQGRVTMTRDTSTSTVYMELSSLRSEDTAVYYCARDRSIAAMGWFDHWGQGTLVTVSS VL: DIQMTQSPSSVSASVGDRVTITCRASQGISSWLVWYQQKPGKAPKLLIYAASRLQSGVPSRFSGSGSGTLFTLIINNLQPEDFATYYCQQSNSVPLTFGGGTKVEIKR | – | 1.41e+09 M⁻¹ | 0.711 nM | 351000 M⁻¹ s⁻¹ | ~4 nM | 0.7 nM | 0.00025 s⁻¹ | 350000 M⁻¹ s⁻¹ | no binding | no binding | ~6 nM | – | –
2 | Fab m616 (Fab, V domains shown, Soluble Fab from E. coli periplasm; also called clone M616) VH: SQVQVLVKPSQTLSLTCAISGDSVSSNSAAWNWIRQSPSRGLEWLGRTYYRSKWYNDYAVSVKSRITINPDTSKNQFSLQLNSVTPEDTAVYYCAREKGIGRGITGTTIPYNWFDPWGQGTLVTVSS VL: SSYEITQPPSVSVTPGQTARITCSGDALPKHFAYWYQQKPGQAPVLIIYKDTERPSGIPERFSGSNSGNTATLTISRVEAGDEADYYCQVWDSSSGWVFGGGTKLTVQG | – | – | – | – | ~4 nM | – | – | – | – | no binding | – | – | –
3 | Fab m610 (Fab, V domains shown, also called clone M610) VH: QVQLVQSGAEVKKPGASVKVSCKASGYTFTSYYMHWVRQAPGQGLEWMGIINPSGGSTSYAQKFQGRVTMTRDTSTSTVYMELSRLRSDDTAVYYCARDVQWLAYGMDVWGQGTTVTVSS VL: not shown | – | 1.09e+09 M⁻¹ | 0.918 nM | 286000 M⁻¹ s⁻¹ | ~4 nM | 0.9 nM | 0.00026 s⁻¹ | 290000 M⁻¹ s⁻¹ | – | no binding | – | – | 0.000262 s⁻¹

Results, then the binder that gave them:

Row | EC50 (read off the curve) (mature IGF-II) | Ka [1] | Kd [1] | kon [1] | EC50 [2] | Kd [3] | koff [3] | kon [3] | binding result (BSA) | binding result (IGF-I) | EC50 (read off the curve) [4] | EC50 (read off the curve) [5] | koff [1] | Binder
4 | ~0.4 nM | – | – | – | – | – | – | – | – | – | – | – | – | IgG1 m606 (antibody, V domains shown, Whole IgG made from the Fab in 293 Free Style cells; also called IgG m606; m606 IgG; not shown: rest of the IgG1 heavy chain constant region supplied by vector pDR12) VH: QVQLVESGAEVKKPGASVKVSCKASGYTFTSYYMHWVRQAPGQGLEWMGIINPSGGSTSYAQKFQGRVTMTRDTSTSTVYMELSSLRSEDTAVYYCARDRSIAAMGWFDHWGQGTLVTVSS VL: DIQMTQSPSSVSASVGDRVTITCRASQGISSWLVWYQQKPGKAPKLLIYAASRLQSGVPSRFSGSGSGTLFTLIINNLQPEDFATYYCQQSNSVPLTFGGGTKVEIKR
5 | ~0.5 nM | – | – | – | – | – | – | – | – | – | – | ~0.4 nM | – | IgG1 m610 (antibody, V domains shown, Whole IgG made from the Fab in 293 Free Style cells; also called IgG m610; IgG M610; not shown: rest of the IgG1 heavy chain constant region supplied by vector pDR12) VH: QVQLVQSGAEVKKPGASVKVSCKASGYTFTSYYMHWVRQAPGQGLEWMGIINPSGGSTSYAQKFQGRVTMTRDTSTSTVYMELSRLRSDDTAVYYCARDVQWLAYGMDVWGQGTTVTVSS VL: not shown
